Experimental data from the nanobody polyreactivity screen of Harvey et al. (2022).

Assay: yeast display, Sf9 membrane polyspecificity reagent, FACS + sequencing; frameworks hold sequencing errors
How it was run: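 A nanobody's polyreactivity label depends on the gate it was sorted from. Yeast display cells were stained with 10% biotinylated, detergent-solubilized Sf9 membrane reagent for 1 hour at 4 °C, enriched on streptavidin microbeads and sorted by FACS. The low and high (top ~1%) gates were set on anti-HA fluorescence for expression and streptavidin fluorescence for reagent binding.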

Sequence	polyreactivity (PSR sort gate)
QVQLVESGGGLVQAGGSLRLSCAASGSTFHLYAMGWYRQAPGKEREFVAAIRGRGGNTYADSVKGRFTISRDNAKNTVYLQMNSLKPEDTAFYYCAAPLLRDLRSPYSYNYWGQGTQVTVSS	low polyreactivity
QVQLVESGGGLVQAGGSLRLSCAASGSTFHRNAMGWYRQAPGKERELVAAISWRGGSTYYADSVKGRFTISRDNAKNNVYLLMNSLKPEDTAVYYCNAVERYWDYGYWGQGTQVTVSS	low polyreactivity
QVQLVESGGGLVQAGGSLRLSCAASGSTFHRYAMGWSRQAPGKERELVAAISLSGGRTYYADSVKGRFTISRDNAKNTVYLQMNSLKPEDSAVYYCNALVPSGNGDHDYWGQGTQVTVSS	high polyreactivity
QVQLVESGGGLVQAGGSLRLSCAASGSTFHSYVMGWYREAPGIERELVAAITSRGGSTNYADSVKGRFTISRDNAKNTVYFQMNSLKPEDTAVYYCAAEWLYPLDGGYPRPMDYWGQGTQVTVSS	low polyreactivity
QVQLVESGGGLVQAGGSLRLSCAASGSTFHVNAMGWYRQAPGKEREFVAAISWRTGSTYYADSVKGRFTISRDNAKNTVYLQMNSLKPEDTAVYYCAAKRSYSNYDYWGQGTQVTVSS	high polyreactivity
QVQLVESGGGLVQAGGSLRLSCAASGSTFHVYAMGWYRQAPGKEREFVASITTRGGSTYYADSVKGRFTISRDNAKNTVYLQMNSLKPEDTAVYYCNATPYPGGNGRWRFWKSYGYWGQGTQVTVSS	high polyreactivity
QVQLVESGGGLVQAGGSLRLSCAASGSTFHWYAMGWYRQAPGKERELVAVITWSGGSTYYADSVKGRFTISRDNAKNTVYLQMNSLKPEDTAVYYCARDWYRYKLWLFRGQDGDYWGQGTQVTVSS	low polyreactivity
QVQLVESGGGLVQAGGSLRLSCAASGSTFHYYAMGWYRQAPGKERELVAAISSSGVSTYYADSVKGRFTISRDNAKNTVYLQMNSLKPEDTAVYYCNRASVFHYRWYYYWGQGTQVTVSS	high polyreactivity
QVQLVESGGGLVQAGGSLRLSCAASGSTFHYYAMGWYRQAPGKERELVATITSSGCSTYYADSVKGRFTISRDNAKNTVYLQMNSLKPEDTAVYYCNKKSYYRDYGRYDYWGQGSQVTVSS	low polyreactivity
QVQLVESGGGLVQAGGSLRLSCAASGSTFIANALGWYRQAPGKEREFVAAITWSGGSTYYADSVKGRFTLSRDNAKNTVFLQMNSLKPEDTAVYYCAKKGRTARGRYDYWGQGTQVTVSS	low polyreactivity
QVQLVESGGGLVQAGGSLRLSCAASGSTFIAYAMGWYRQAPGKESELVAAITSGDGTYYADSVKGRFTISRDNAKNTVYLQMNSLKPEDTAVYYCAVGYYWNEPLYWYGDFDYWGQGTQVTVSS	high polyreactivity
QVQLVESGGGLVQAGGSLRLSCAASGSTFIDYAMGWYRQAPGKEREFVAGISSGDSTDYADSVKGRFTISRDNAKNTVYLQMNSLKPEDTAVYYCNADWNPTERWFYWYTPLGYDYWGQGTQVTVSS	low polyreactivity
QVQLVESGGGLVQAGGSLRLSCAASGSTFIDYAMGWYRQAPGKERELVAAITNGGNTKYADSVKGRFTISRDNAKNTVYLQMNSLKPEDTAVYYCAREPSIFTPSYDYWGQGTQVNVSS	low polyreactivity
QVQLVESGGGLVQAGGSLRLSCAASGSTFIDYGMGWYRQAPGKERELVAAIDLDSGDTYYADSVKGRFTISRDNAKNTVYLQMNSLKPEDTAVYYCAAQYWYRYNYWGQGTQVTVSS	low polyreactivity
QVQLVESGGGLVQAGGSLRLSCAASGSTFIGHAMGWYRQAPGIERELVATITSGDSTYADSVKGRFTISRDNAKNTVYLQMNSLKPEDTAVYYCNADPWDIGSSFELDYWGQGTQLTVSS	low polyreactivity
QVQLVESGGGLVQAGGSLRLSCAASGSTFIINAMGWYRQAPGKERELVAAITIGDITNYADSVKGRFTISRDNAKNTVYLQMNSLKPEDTAVYYCNKDALLFWHRDYVLDTYEYWGQGTQVTVSS	low polyreactivity
QVQLVESGGGLVQAGGSLRLSCAASGSTFILYAMGWYRQAPGKERELVAAITTSGGSTYYADSVKGRFTISRDNAKNTVYLQMKSLKPEDTAVYYCNGGLSVTHGTSIPFRNYEYWGQGTQVTVSS	low polyreactivity
QVQLVESGGGLVQAGGSLRLSCAASGSTFINYAMGWYREAPGKERELVAAISKGGGSTYYADSVKGRFTISRDTAKNTVYLQINSLKPEDTAVYDCARARSGGSHREYYWGQGTQVTVSS	high polyreactivity
QVQLVESGGGLVQAGGSLRLSCAASGSTFINYAMGWYRQAPGKERELVAAYADSVKGRFTISRDNAKNTVYLQMNRLKPEDTAVYDCNAVTGECGQGTQVTVSS	low polyreactivity
QVQLVESGGGLVQAGGSLRLSCAASGSTFIRNAMGWYRQAPGKERELVAAISSSGGRTYYADSVKGRFTISRDNAKNTVYLQMNSLKPEDTAVYYCAARAVGAYYSSYSHGAGYYYWGQGTQLTVSS	high polyreactivity
QVQLVESGGGLVQAGGSLRLSCAASGSTFIRYTMGWYRQAPGKERELVAAISTGGTNYADSVKGRFTISRDNAKNTVYLQMYSLKPGDTAVYYCAKPSSPSLGGVSDRIYWGQGTQVTVSS	low polyreactivity
QVQLVESGGGLVQAGGSLRLSCAASGSTFISNAMGWYRQAPGKERELVASITWTDVSTYYADSVKGRFTISRDNAKNTVYLQMNSLKPEDTAVYYCAAVTGLSSNDGYDYWGQGTQVTVSS	low polyreactivity
QVQLVESGGGLVQAGGSLRLSCAASGSTFITNIMGWYRQAPGKERELVAAISYIDGTTYYADSVKGRFTISRDYAKNTVYLQMNSLKADDTAVYYCAAVVSKSSFDYWGQGTQVTVSS	low polyreactivity
QVQLVESGGGLVQAGGSLRLSCAASGSTFITYAMGWYRQAPGKERELVAAISWSGVGTYYADSVKGRFTISRDNAKNTVYLQMNSLKPEDTAVYYCAVDRIYYYTYGVYYWGQGTQVTVSS	high polyreactivity
QVQLVESGGGLVQAGGSLRLSCAASGSTFIVNAMGWYRQAPGKERELVAAISRSGSDTYYADSVKGRFTISRDNAKNTVYLQMNSLKPEDTAVYYCAARWSYRSLARYNYWGQGTQVTVSS	low polyreactivity
QVQLVESGGGLVQAGGSLRLSCAASGSTFIVNAMRWYRQAPGKERELVAAIDWSGGSTYYADSVKGRFTISRDNAKNTVYLQMNSLKPEDTAVYYCAAQYEIPAGNSTYDYWGQGTQVTVSS	low polyreactivity
QVQLVESGGGLVQAGGSLRLSCAASGSTFIVYAMGWYRQATGKERELVAAISLDGGSTYYADSVKGRFTISRDNAKNTVYLQMNSLKPEDTAVYYCNADYYANSITYDSWGQGTQVTVSS	low polyreactivity
QVQLVESGGGLVQAGGSLRLSCAASGSTFIWNAMGWYRQAPRKERELVATITYSGGSTYYADSVKGRFTISRDNAKNTVYLQMNSLKPEDTAVYYCATDATIPKCYTYPGEMDYWGQGTQVTVSS	low polyreactivity
QVQLVESGGGLVQAGGSLRLSCAASGSTFIYYTMGWYRQAPGKERELVAAISWRGGSTYYADSVKGRFTIARDNAKNTVYLQMNSLKPEDTAVYYCATGYLYFTSYRYNYWGQGTQVTVSS	low polyreactivity
QVQLVESGGGLVQAGGSLRLSCAASGSTFKGTAMGWYRQAPGNERELVAAINRSGTSTYYAHSVKGRFTISRDNAKNTVYLQMNSLKPEDTAVYYCANKYFGHRFDYWGQGTQVTVSS	high polyreactivity
